Values quoted from earlier work, collected in PMC8878198.

Target: CXCL8 (Homo sapiens) (UniProt P10145)
Sequence (P10145 28-99): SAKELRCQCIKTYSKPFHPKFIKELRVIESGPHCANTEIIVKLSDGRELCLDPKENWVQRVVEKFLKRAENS

Sequence of CXCR2 (P25025 whole entry): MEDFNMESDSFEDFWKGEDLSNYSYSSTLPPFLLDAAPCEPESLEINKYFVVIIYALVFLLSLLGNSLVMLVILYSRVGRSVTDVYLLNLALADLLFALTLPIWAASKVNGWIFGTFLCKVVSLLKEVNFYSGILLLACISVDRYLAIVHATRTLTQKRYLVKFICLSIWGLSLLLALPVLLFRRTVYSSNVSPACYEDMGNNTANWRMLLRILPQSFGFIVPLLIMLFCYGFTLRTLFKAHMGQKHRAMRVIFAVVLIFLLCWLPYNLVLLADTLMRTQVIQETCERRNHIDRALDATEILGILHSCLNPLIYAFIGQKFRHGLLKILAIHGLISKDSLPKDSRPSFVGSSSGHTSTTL

CXCR2 (from UniProt P25025)
Kd: 0.7 nM
